Data from patent US20180215825A1 (BEIGENE, published 2018).
Changes are numbered by the printed parent chain.

T1: FcγRIIAR131 extracellular domain, His tag (human, UniProt P12318 34-217)
T1 construct: extracellular domain
T1 sequence (looked up): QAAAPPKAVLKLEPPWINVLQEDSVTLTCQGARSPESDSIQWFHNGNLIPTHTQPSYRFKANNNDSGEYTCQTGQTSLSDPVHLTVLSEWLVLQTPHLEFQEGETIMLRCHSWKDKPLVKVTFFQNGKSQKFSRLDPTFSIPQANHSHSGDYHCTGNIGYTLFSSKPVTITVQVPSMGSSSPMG

T2: FcγRIIAH131 extracellular domain, His tag (human, UniProt P12318 34-217)
T2 construct: extracellular domain
T2 sequence (looked up): T1 sequence (looked up) with R134H

T3: human FcγRIIAH131 expressed on HEK293 cells (human, UniProt P12318 34-317)
T3 construct: whole, on cells
T3 sequence (looked up): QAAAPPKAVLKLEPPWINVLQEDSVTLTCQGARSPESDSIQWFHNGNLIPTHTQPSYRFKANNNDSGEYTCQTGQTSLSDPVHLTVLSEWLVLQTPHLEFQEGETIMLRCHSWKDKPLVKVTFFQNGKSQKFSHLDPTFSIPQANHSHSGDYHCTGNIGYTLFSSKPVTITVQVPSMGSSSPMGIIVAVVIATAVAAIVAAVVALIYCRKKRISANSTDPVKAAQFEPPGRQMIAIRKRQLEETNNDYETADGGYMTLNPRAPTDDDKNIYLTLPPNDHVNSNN

B1: hu333-4A2-IgG1wt (antibody)
heavy: not shown
VL: DIQMTQSPSSLSASVGDRVTITCKASQDVGIVVAWYQQKPGKAPKLLIYWASIRHTGVPSRFSGSGSGTEFTLTISSLQPDDFATYYCQQYSNYPLYTFGQGTKVEIK
notes: light chain constant region (kappa) not tied to an entry for this form
B2: hu333-4B2-IgG1mc (antibody)
heavy: EVQLVESGGGLVQPGGSLRLSCAVSGFSLTSYGVHWVRQAPGKGLEWVAVIWAGGSTNYADSVKGRFTISKDTSKNTVYLQMNSLRAEDTAVYYCAKPYGTSAMDYWGQGTLVTVSSASTKGPSVFPLAPSSKSTSGGTAALGCLVKDYFPEPVTVSWNSGALTSGVHTFPAVLQSSGLYSLSSVVTVPSSSLGTQTYICNVNHKPSNTKVDKKVEPKSCDKTHTCPPCPAPPAAAPSVFLFPPKPKDTLMISRTPEVTCVVVDVSHEDPEVKFNWYVDGVEVHNAKTKPREEQYNSTYRVVSVLTVLHQDWLNGKEYKCKVSNKALAAPIEKTISKAKGQPREPQVYTLPPSRDELTKNQVSLTCLVKGFYPSDIAVEWESNGQPENNYKTTPPVLDSDGSFFLYSKLTVDKSRWQQGNVFSCSVMHEALHNHYTQKSLSLSPGK
light: DIQMTQSPSSLSASVGDRVTITCKASQDVGIVVAWYQQKPGKAPKLLIYWASIRHTGVPSRFSGSGSGTEFTLTISSLQPDDFATYYCQQYSNYPLYTFGQGTKVEIKRTVAAPSVFIFPPSDEQLKSGTASVVCLLNNFYPREAKVQWKVDNALQSGNSQESVTEQDSKDSTYSLSSTLTLSKADYEKHKVYACEVTHQGLSSPVTKSFNRGEC
B3: hu333-4A2-IgG1mc (antibody)
heavy: B2 heavy with A60V, T73N, S74A
light: B2 light
B4: hu333-4B2-IgG1mf (antibody)
heavy: B2 heavy with A236G
light: B2 light

Key:
[1] = molecular target: T4, FcγRIIIAV158 extracellular domain, His tag (human, UniProt P08637 17-208); experiment: ELISA, FcγR-His coated, preformed immune complex of the mAb
T4 construct: extracellular domain; also called FcγRIIIAV58
T4 sequence (P08637 17-208 F176V limits assumed): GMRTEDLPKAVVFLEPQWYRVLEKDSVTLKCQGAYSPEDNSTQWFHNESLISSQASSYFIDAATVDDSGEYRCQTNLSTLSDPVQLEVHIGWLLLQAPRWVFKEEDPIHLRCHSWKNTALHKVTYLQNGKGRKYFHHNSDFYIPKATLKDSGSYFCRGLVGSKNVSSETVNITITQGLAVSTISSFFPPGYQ
Method: (§1) The extracellular domains of FcγRs were fused to C-terminal His tags as described in previous sections. Recombinant proteins were expressed in 293-F cells by transient transfection and purified using Ni-Sepharose column followed by gel filtration column as described. 2-5 μg/mL of FcγRs were coated on Nunc MaxiSorp ELISA plates (Cat. No. 442404, Nunc, Thermo Fisher) except FcγRIIB and FcγRIIIB, Ni-chelate plates were used (Cat. No. 15242, Pierce, Thermo Fisher). After washing and blocking of the wells, a preformed immune-complex was added to each well and incubated at room temperature for 1-2 hours. […] After washing the plate four times, binding signals were detected by chemiluminescence using Immobilon Chemiluminescence Substrate A/B (Cat. No. WBKLS0500, Millipore).

[2] = molecular target: T5, FcγRI extracellular domain, His tag (human, UniProt P12314 16-292); experiment: as above
T5 construct: extracellular domain
T5 sequence (P12314 16-292): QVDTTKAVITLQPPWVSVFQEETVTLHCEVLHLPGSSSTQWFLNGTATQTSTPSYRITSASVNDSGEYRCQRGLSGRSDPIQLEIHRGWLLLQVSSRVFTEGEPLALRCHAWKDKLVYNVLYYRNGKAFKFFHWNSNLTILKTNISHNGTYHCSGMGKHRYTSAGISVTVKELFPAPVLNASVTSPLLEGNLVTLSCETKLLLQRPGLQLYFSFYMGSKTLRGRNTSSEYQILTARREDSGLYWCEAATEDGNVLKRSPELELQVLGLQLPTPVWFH
Method: as §1

[3] = molecular target: T1, FcγRIIAR131 extracellular domain, His …; experiment: as above
Method: as §1

[4] = molecular target: T6, FcγRIIIAF158 extracellular domain, His tag (human, UniProt P08637 17-208); experiment: as above
T6 construct: extracellular domain
T6 sequence (P08637 17-208): as the sequence (P08637 17-208 F176V limits assumed) above, with V160F counted along it
Method: as §1

[5] = molecular target: T2, FcγRIIAH131 extracellular domain, His …; experiment: as above
Method: as §1

[6] = molecular target: T4, FcγRIIIAV158 extracellular domain, His …; experiment: ELISA, FcγR-His coated, preformed immune complex; normalized to hu333-4A2-IgG1wt
Method: as §1

[7] = molecular target: T5, FcγRI extracellular domain, His tag; experiment: as above
Method: as §1

[8] = molecular target: T1, FcγRIIAR131 extracellular domain, His …; experiment: as above
Method: as §1

[9] = molecular target: T6, FcγRIIIAF158 extracellular domain, His …; experiment: as above
Method: as §1

[10] = molecular target: T2, FcγRIIAH131 extracellular domain, His …; experiment: as above
Method: as §1

[11] = molecular target: T7, human PD-L1, full length, expressed on cells (human, UniProt Q9NZQ7 19-290); experiment: FACS competition with PD-1/Fc on HEK293/PD-L1 cells
T7 construct: also called HEK293/PD-L1 cells; HEK293/OS8/PD-L1 cells
T7 sequence (Q9NZQ7 19-290 limits assumed): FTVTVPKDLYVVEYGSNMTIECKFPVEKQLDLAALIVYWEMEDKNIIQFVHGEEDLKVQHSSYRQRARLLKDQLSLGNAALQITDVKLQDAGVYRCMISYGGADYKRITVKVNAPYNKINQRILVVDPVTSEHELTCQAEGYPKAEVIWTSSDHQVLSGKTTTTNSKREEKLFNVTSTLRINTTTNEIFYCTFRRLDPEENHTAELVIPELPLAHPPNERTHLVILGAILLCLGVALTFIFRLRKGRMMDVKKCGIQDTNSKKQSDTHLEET

[12] = molecular target: T8, human FcγRIIIAV158 expressed on cells (human, UniProt P08637 17-254); experiment: FACS, monomeric mAb on FcγR-expressing HEK293 cells, goat anti-human IgG F(ab')2-Alexa Fluor 488 detection
T8 construct: whole, on cells; Co-expressed with FcRγ subunit; on HEK293 cells in the FACS assays, on NK92MI/CD16V cells in the ADCC assay; also called CD16 (V158 allele)
T8 sequence (P08637 17-254 F176V limits assumed): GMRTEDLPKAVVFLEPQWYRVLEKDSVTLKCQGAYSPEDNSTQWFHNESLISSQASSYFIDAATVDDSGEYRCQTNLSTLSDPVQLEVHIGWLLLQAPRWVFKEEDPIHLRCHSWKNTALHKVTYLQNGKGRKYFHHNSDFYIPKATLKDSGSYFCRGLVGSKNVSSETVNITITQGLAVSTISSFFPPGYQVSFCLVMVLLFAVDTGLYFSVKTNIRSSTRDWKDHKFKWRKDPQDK
Method: (§2) Bindings of humanized anti-PD-L1 in various IgG1 formats (wt, IgG1mc, IgG1mf, SEQ. NO. 27-29) to FcγRs were also determined by flow cytometry. In brief, a series of stable HEK293 transfectants expressing human FcγRs were established. These stable cell lines expressed FcγRI, FcγRIIAH131, FcγRIIAR131, FcγRIIB, FcγRIIIAF158 or FcγRIIIAV158, respectively. Multi-subunit FcγRs (i.e., FcγRI and FcγRIIIA) were co-expressed with FcRγ subunit.

[13] = molecular target: T3, human FcγRIIAH131 expressed on HEK293 …; experiment: as above
Method: as §2

Binder	Chemiluminescence [1]	Chemiluminescence [2]	Chemiluminescence [3]	Chemiluminescence [4]	Chemiluminescence [5]	Relative binding [6] [%]	Relative binding [7] [%]	Relative binding [8] [%]	Relative binding [9] [%]	Relative binding [10] [%]	IC50 [11] [µg/mL]	Max inhibition [11] [%]	binding result [12]	binding result [13]
B1	57800	42700	50200	36400	54600	100	100	100	100	100	–	–	–	–
B2	–	–	–	–	–	–	–	–	–	–	0.167	100	no binding	no binding
B3	–	–	–	–	–	–	–	–	–	–	0.172	100	no binding	no binding
B4	–	–	–	–	–	–	–	–	–	–	0.174	100	no binding	no binding
